Legend:
Assay in all cases: cell-based or functional assay
[1] = target: C164 (V11I, C38A, S55H, C76A, C127A) (human) (UniProt Q14116)
[2] = target: IL-18 polypeptide SEQ ID NO: 60 (E6K, C38Q, K53A) (human) (UniProt Q14116)
[3] = target: C157 (V11I, C38A, K53A, C76A, C127A, D132A) (human) (UniProt Q14116)
[4] = target: IL-18 polypeptide SEQ ID NO: 6 (E6K, V11I, C38A, K53A, T63A, C68A, C76A, D98C, C127A) (human) (UniProt Q14116)
[5] = target: IL-18 polypeptide SEQ ID NO: 41 (K53A, S55A) (human) (UniProt Q14116)
Sequence of IL-18 polypeptide SEQ ID NO: 41 (K53A, S55A) (human) (Q14116 37-193 K89A/S91A): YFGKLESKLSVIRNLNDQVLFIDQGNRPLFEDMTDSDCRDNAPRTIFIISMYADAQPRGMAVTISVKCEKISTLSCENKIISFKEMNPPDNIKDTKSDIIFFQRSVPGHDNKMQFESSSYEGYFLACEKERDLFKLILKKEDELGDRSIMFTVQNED

[6] = target: IL-18 polypeptide SEQ ID NO: 4 (E6K, C38A, K53A, C68A, M86C) (human) (UniProt Q14116)
Sequence of IL-18 polypeptide SEQ ID NO: 4 (E6K, C38A, K53A, C68A, M86C) (human) (Q14116 other isoform, or with tags, fused parts or gaps C38A K53A C68A M86C C38A K53A C68A M86C): as the sequence (Q14116 37-193 K89A/S91A) above, with E6K, C38A, A55S, C68A, M86C counted along it

[7] = target: C158 (V11I, C38A, K53A, C76A, G108A, C127A) (human) (UniProt Q14116)
Sequence of C158 (V11I, C38A, K53A, C76A, G108A, C127A) (human) (Q14116 37-193 V47I/C74A/K89A/C112A/G144A/C163A): as the sequence (Q14116 37-193 K89A/S91A) above, with V11I, C38A, A55S, C76A, G108A, C127A counted along it

[8] = target: IL-18 polypeptide SEQ ID NO: 40 (E06K, S55A) (human) (UniProt Q14116)
Sequence of IL-18 polypeptide SEQ ID NO: 40 (E06K, S55A) (human) (Q14116 37-193 E42K/S91A): as the sequence (Q14116 37-193 K89A/S91A) above, with E6K, A53K counted along it

[9] = target: C143 (V11I, C38A, K53A, C76A, C127A) (human) (UniProt Q14116)
Sequence of C143 (V11I, C38A, K53A, C76A, C127A) (human) (Q14116 37-193 V47I/C74A/K89A/C112A/C163A): as the sequence (Q14116 37-193 K89A/S91A) above, with V11I, C38A, A55S, C76A, C127A counted along it

[10] = target: C149 (V11I, E31A, C38A, K53A, C76A, C127A) (human) (UniProt Q14116)
Sequence of C149 (V11I, E31A, C38A, K53A, C76A, C127A) (human) (Q14116 37-193 V47I/E67A/C74A/K89A/C112A/C163A): as the sequence (Q14116 37-193 K89A/S91A) above, with V11I, E31A, C38A, A55S, C76A, C127A counted along it

[11] = target: C156 (V11I, C38A, N41A, K53A, C76A, C127A) (human) (UniProt Q14116)
Sequence of C156 (V11I, C38A, N41A, K53A, C76A, C127A) (human) (Q14116 37-193 V47I/C74A/N77A/K89A/C112A/C163A): as the sequence (Q14116 37-193 K89A/S91A) above, with V11I, C38A, N41A, A55S, C76A, C127A counted along it

[12] = target: C146 (SEQ ID NO: 79; V11I, C38A, M51G, K53A, C76A, C127A) (human) (UniProt Q14116)
Sequence of C146 (SEQ ID NO: 79; V11I, C38A, M51G, K53A, C76A, C127A) (human) (Q14116 37-193 V47I/C74A/M87G/K89A/C112A/C163A): as the sequence (Q14116 37-193 K89A/S91A) above, with V11I, C38A, M51G, A55S, C76A, C127A counted along it

[13] = target: IL-18 polypeptide SEQ ID NO: 48 (C38S, C68S, C76S, C127S, K70C) (human) (UniProt Q14116)
Sequence of IL-18 polypeptide SEQ ID NO: 48 (C38S, C68S, C76S, C127S, K70C) (human) (Q14116 37-193 C74S/C104S/K106C/C112S/C163S): as the sequence (Q14116 37-193 K89A/S91A) above, with C38S, A53K, A55S, C68S, K70C, C76S, C127S counted along it

[14] = target: C160 (V11I, C38A, K53A, C76A, D110A, C127A) (human) (UniProt Q14116)
Sequence of C160 (V11I, C38A, K53A, C76A, D110A, C127A) (human) (Q14116 37-193 V47I/C74A/K89A/C112A/D146A/C163A): as the sequence (Q14116 37-193 K89A/S91A) above, with V11I, C38A, A55S, C76A, D110A, C127A counted along it

[15] = target: IL-18 WT (native sequence, SEQ ID NO: 1) (human) (UniProt Q14116)
Sequence of IL-18 WT (native sequence, SEQ ID NO: 1) (human) (Q14116 37-193): as the sequence (Q14116 37-193 K89A/S91A) above, with A53K, A55S counted along it

[16] = target: IL-18 polypeptide SEQ ID NO: 43 (E06K, K53A, S55A, Y01G) (human) (UniProt Q14116)
Sequence of IL-18 polypeptide SEQ ID NO: 43 (E06K, K53A, S55A, Y01G) (human) (Q14116 37-193 Y37G/E42K/K89A/S91A): as the sequence (Q14116 37-193 K89A/S91A) above, with Y1G, E6K counted along it

[17] = target: C159 (V11I, C38A, K53A, C76A, H109A, C127A) (human) (UniProt Q14116)
Sequence of C159 (V11I, C38A, K53A, C76A, H109A, C127A) (human) (Q14116 37-193 V47I/C74A/K89A/C112A/H145A/C163A): as the sequence (Q14116 37-193 K89A/S91A) above, with V11I, C38A, A55S, C76A, H109A, C127A counted along it

[18] = target: C151 (V11I, D35A, C38A, K53A, C76A, C127A) (human) (UniProt Q14116)
Sequence of C151 (V11I, D35A, C38A, K53A, C76A, C127A) (human) (Q14116 37-193 V47I/D71A/C74A/K89A/C112A/C163A): as the sequence (Q14116 37-193 K89A/S91A) above, with V11I, D35A, C38A, A55S, C76A, C127A counted along it

[19] = target: IL-18 polypeptide SEQ ID NO: 38 (E06K) (human) (UniProt Q14116)
Sequence of IL-18 polypeptide SEQ ID NO: 38 (E06K) (human) (Q14116 37-193 E42K): as the sequence (Q14116 37-193 K89A/S91A) above, with E6K, A53K, A55S counted along it

[20] = target: IL-18 polypeptide SEQ ID NO: 50 (E06K, K53A, T63A) (human) (UniProt Q14116)
Sequence of IL-18 polypeptide SEQ ID NO: 50 (E06K, K53A, T63A) (human) (Q14116 37-193 E42K/K89A/T99A): as the sequence (Q14116 37-193 K89A/S91A) above, with E6K, A55S, T63A counted along it

[21] = target: C086 (SEQ ID NO: 30; E6K, V11I, C38A, K53A, T63A, C76A, C127A) (human) (UniProt Q14116)
Sequence of C086 (SEQ ID NO: 30; E6K, V11I, C38A, K53A, T63A, C76A, C127A) (human) (Q14116 other isoform, or with tags, fused parts or gaps with the stated changes): as the sequence (Q14116 37-193 K89A/S91A) above, with E6K, V11I, C38A, A55S, T63A, C76A, C127A counted along it

Sequence of IL-18 polypeptide SEQ ID NO: 6 (E6K, V11I, C38A, K53A, T63A, C68A, C76A, D98C, C127A) (human) (Q14116 other isoform, or with tags, fused parts or gaps with the stated changes): as the sequence (Q14116 37-193 K89A/S91A) above, with E6K, V11I, C38A, A55S, T63A, C68A, C76A, D98C, C127A counted along it
Sequence of IL-18 polypeptide SEQ ID NO: 60 (E6K, C38Q, K53A) (human) (Q14116 other isoform, or with tags, fused parts or gaps C38Q K53A C38Q K53A): as the sequence (Q14116 37-193 K89A/S91A) above, with E6K, C38Q, A55S counted along it
Sequence of C164 (V11I, C38A, S55H, C76A, C127A) (human) (Q14116 37-193 V47I/C74A/S91H/C112A/C163A): as the sequence (Q14116 37-193 K89A/S91A) above, with V11I, C38A, A53K, A55H, C76A, C127A counted along it
Sequence of C157 (V11I, C38A, K53A, C76A, C127A, D132A) (human) (Q14116 37-193 V47I/C74A/K89A/C112A/C163A/D168A): as the sequence (Q14116 37-193 K89A/S91A) above, with V11I, C38A, A55S, C76A, C127A, D132A counted along it

IC50 (nM), IL-18BPa inhibition of IFNγ induction, NK-92 cells [1]: 0.885 nM
IC50 (nM), IL-18BPa inhibition of IFNγ induction, NK-92 cells [2]: 654 nM
IC50 (nM), IL-18BPa inhibition of IFNγ induction, NK-92 cells [3]: 3.98 nM
IC50 (nM), IL-18BPa inhibition of IFNγ induction, NK-92 cells [4]: 5.85 nM
IC50 (nM), IL-18BPa inhibition of IFNγ induction, NK-92 cells [5]: 37.3 nM
IC50 (nM), IL-18BPa inhibition of IFNγ induction, NK-92 cells [6]: 396 nM
IC50 (nM), IL-18BPa inhibition of IFNγ induction, NK-92 cells [7]: 1.81 nM
IC50 (nM), IL-18BPa inhibition of IFNγ induction, NK-92 cells [8]: 15 nM
IC50 (nM), IL-18BPa inhibition of IFNγ induction, NK-92 cells [9]: 7.52 nM
IC50 (nM), IL-18BPa inhibition of IFNγ induction, NK-92 cells [10]: 21.3 nM
IC50 (nM), IL-18BPa inhibition of IFNγ induction, NK-92 cells [11]: 6.08 nM
IC50 (nM), IL-18BPa inhibition of IFNγ induction, NK-92 cells [12]: 47.6 nM
IC50 (nM), IL-18BPa inhibition of IFNγ induction, NK-92 cells [13]: 0.114 nM
IC50 (nM), IL-18BPa inhibition of IFNγ induction, NK-92 cells [14]: 1.07 nM
IC50 (nM), IL-18BPa inhibition of IFNγ induction, NK-92 cells [15]: 1.47 nM
IC50 (nM), IL-18BPa inhibition of IFNγ induction, NK-92 cells [16]: 27.8 nM
IC50 (nM), IL-18BPa inhibition of IFNγ induction, NK-92 cells [17]: 3.18 nM
IC50 (nM), IL-18BPa inhibition of IFNγ induction, NK-92 cells [18]: 7.85 nM
IC50 (nM), IL-18BPa inhibition of IFNγ induction, NK-92 cells [19]: 7.79 nM
IC50 (nM), IL-18BPa inhibition of IFNγ induction, NK-92 cells [20]: > 1000 nM
IC50 (nM), IL-18BPa inhibition of IFNγ induction, NK-92 cells [21]: 284 nM
Substance: Fc-fused human IL-18 binding protein isoform a (IL-18BPa) (from UniProt O95998 31-194) (Fc fusion)
